Where two headings read alike, the source gives them in different places.
Columns and labels:
[1] = biological target: T1, FMC63-(vL-vH)-Myc-BBz-T2A-Pac; experiment: NLuc assay, supernatant on CAR T cells
T1 construct: Entry = whole construct incl; T2A-Pac; also called FMC63-CAR; CD19 (FMC63)-CAR

[2] = biological target: T2, Luc90-(vL-vH)-MYC-CD28z-T2A-Pac; experiment: NLuc assay, supernatant on transfected 293FT cells
T2 construct: Entry = whole construct incl; T2A-Pac; also called SLAMF7/CS1-specific CAR; 031915-F03

[3] = biological target: T3, CD324-SC10-6-(vL-vH)-MYC-BBz-T2A-PAC; experiment: NLuc assay, supernatant on transfected 293FT cells
T3 construct: Entry = whole construct incl; T2A-PAC; also called CDH1/CD324-specific CAR; 052516-B07

[4] = biological target: T4, CD324-hSC10-17-(vL-vH)-MYC-BBz-T2A-PAC; experiment: NLuc assay, supernatant on transfected 293FT cells
T4 construct: Entry = whole construct incl; T2A-PAC; also called CDH1/CD324-specific CAR; 052516-A07

[5] = biological target: T5, CD200R-huDx182-(vL-vH)-Myc-BBz-T2A-PAC; experiment: NLuc assay, supernatant on transfected 293FT cells
T5 construct: Entry = whole construct incl; T2A-PAC; also called CD200R-specific CAR

[6] = biological target: T6, J6MO-(vL-vH)-MYC-28z-T2A-Pac; experiment: NLuc assay, supernatant on NK92MI cells expressing the CAR
T6 construct: CAR on NK92MI cells; Entry = whole construct incl; T2A-Pac; also called BCMA-specific CAR; 031915-G02

[7] = biological target: T2, Luc90-(vL-vH)-MYC-CD28z-T2A-Pac; experiment: NLuc assay, supernatant on 293FT cells transfected with the CAR
[8] = biological target: T1, FMC63-(vL-vH)-Myc-BBz-T2A-Pac; experiment: as above
[9] = biological target: T3, CD324-SC10-6-(vL-vH)-MYC-BBz-T2A-PAC; experiment: as above
[10] = biological target: T4, CD324-hSC10-17-(vL-vH)-MYC-BBz-T2A-PAC; experiment: as above
[11] = biological target: T1, FMC63-(vL-vH)-Myc-BBz-T2A-Pac; experiment: as above; remark: listed apart in the source
CD19 [12] = biological target: T7, CD19 (human, UniProt P15391 20-556); experiment: Luc assay, supernatant on BC1 cells
T7 construct: whole, on cells; Endogenous antigen of the cell lines tested (RAJI stated CD19 positive); also called human CD19

CD19 [13] = biological target: T7, CD19; experiment: Luc assay, supernatant on RAJI cells
CD19 [14] = biological target: T7, CD19; experiment: Luc assay, supernatant on BC-3 cells
CD19 [15] = biological target: T7, CD19; experiment: Luc assay, supernatant on MM1S cells
CD19 [16] = biological target: T7, CD19; experiment: Luc assay, supernatant on U266 cells
CD19 [17] = biological target: T7, CD19; experiment: Luc assay, supernatant on BV173 cells
CD19 [18] = biological target: T7, CD19; experiment: Luc assay, supernatant on JSC-1 cells
CD19 [19] = biological target: T7, CD19; experiment: Luc assay, supernatant on BCBL-1 cells
CD19 [20] = biological target: T7, CD19; experiment: Luc assay, supernatant on HL60 cells (stated CD19-, CD20-, CD33+)
CD19 [21] = biological target: T7, CD19; experiment: Luc assay, supernatant on Raji cells (stated CD19+, CD20+, CD33-)

B1: FLAG-CD19-ECD-GGSG-NLuc-AcV5 (receptor)
chain: not shown
notes: Entry = whole insert incl; CD19 signal peptide, FLAG tag, linker, NLuc, AcV5; also called CD19-GGSG-NLuc-AcV5
fold NLuc value over uninfected or control CAR cells [1]: > 85 fold
binding result [2]: no binding
binding result [3]: no binding
binding result [4]: no binding
binding result [5]: no binding
binding result [6]: no binding
Mean Luc activity [7]: 3830
Mean Luc activity [8]: 237000
Mean Luc activity [9]: 16400
Mean Luc activity [10]: 5190
Mean Luc activity [11]: 237000

B2: CD8SP-CD19-4G7-(vL-vH)-GGSG-NLuc-4xFLAG-x2STREP-8xHis-T2A-PAC (scFv)
scFv: not shown
notes: Entry = whole insert incl. signal peptide and T2A-PAC; also called 062916-C08
Mean Luc activity (CD19 [12]): 52300
Mean Luc activity (CD19 [13]): 397000
Luc activity (CD19 [14]): 6180
Luc activity (CD19 [15]): 10400
Luc activity (CD19 [16]): 6540
Luc activity (CD19 [17]): 121000
Luc activity (CD19 [18]): 13300
Luc activity (CD19 [19]): 14000

B3: CD8SP-hCD19-Bu12-(vL-vH)-GGSG-NLuc-AcV5 (scFv)
scFv: not shown
notes: Entry = whole insert incl. signal peptide; also called 021417-T05
Mean Luc activity (CD19 [20]): 1610
Mean Luc activity (CD19 [21]): 358000

B4: CDH1-ECD-GGSG-NLuc-4xFlag-2xStreptag-8xHis-T2A-Pac (receptor)
chain: not shown
notes: Entry = whole insert incl; T2A-Pac; also called 062816-G02
Mean Luc activity [9]: 2.9e+06
Mean Luc activity [10]: 2.02e+06

B5: SLAMF7-CS1-ECD-GGSG-NLuc-4xFlag-2xStreptag-8xHis-T2A-Pac (receptor)
chain: not shown
notes: Entry = whole insert incl; T2A-Pac; also called 062816-A01
Mean Luc activity [7]: 100000

B6: CD8SP-CD19-4G7-Mlu-GSG-NLuc-AcV5 (scFv)
scFv: not shown
notes: Entry = whole insert incl. signal peptide; also called 021417-Z04
Mean Luc activity (CD19 [20]): 4320
Mean Luc activity (CD19 [21]): 380000

Source: US20240133885A1 (UNIVERSITY OF SOUTHERN CALIFORNIA, published 2024)
